Paper PMC10986514

Molecular target: SARS-CoV-2 RBD single mutant E484K (SARS-CoV-2) (UniProt P0DTC2)
Assay: peptide or protein array

Substance	percent decrease of the binding signal against wild-type RBD [%]
Tri-TMV multimodular nanobody (Ty1, MR17-K99Y and VHH V modules)	40
Tri-Ty1 multimodular nanobody (three Ty1 modules) (VHH)	96
Tri-TMH multimodular nanobody (Ty1, MR17-K99Y and H11-H4 modules) (VHH)	60
